From paper PMC7614532 (Cell, 2023)

Target: N-terminally SNAP-tagged human β2AR (SNAP-β2AR) (human, UniProt P07550 1-413)
Assay: single-molecule co-localisation

B1: bovine βArr2 tagged C-terminally with Halo (βArr2-Halo) (natural protein)
chain: MGEKPGTRVFKKSSPNCKLTVYLGKRDFVDHLDKVDPVDGVVLVDPDYLKDRKVFVTLTCAFRYGREDLDVLGLSFRKDLFIANYQAFPPTPNPPRPPTRLQERLLRKLGQHAHPFFFTIPQNLPCSVTLQPGPEDTGKACGVDFEIRAFCAKSLEEKSHKRNSVRLVIRKVQFAPEKPGPQPSAETTRHFLMSDRSLHLEASLDKELYYHGEPLNVNVHVTNNSTKTVKKIKVSVRQYADICLFSTAQYKCPVAQVEQDDQVSPSSTFCKVYTITPLLSNNREKRGLALDGKLKHEDTNLASSTIVKEGANKEVLGILVSYRVKVKLVVSRGGDVSVELPFVLMHPKPHDHIALPRPQSAAPETDAPVDTNLIEFETNYATDDDIVFEDFARLRLKGLKDEDYDDQFC
Work on B1 yielded an average interaction time of ~1 s.
